Assays:
[1] = biological target: CEACAM1 N-도메인 (CEACAM1 N-domain, residues 35-141) (human) (UniProt P13688); assay: X-ray crystal structure of the Fab and N-domain complex
[2] = biological target: T1, hCEACAM1 (R&D Systems, CAT. NO. 2244-CM) (human, UniProt P13688 35-428); assay: not named in this sentence (BLI in Example 4); differs from the table cell
T1 construct: not shown: a His tag is implied by the use of Anti-His (His1K) biosensors
T1 sequence: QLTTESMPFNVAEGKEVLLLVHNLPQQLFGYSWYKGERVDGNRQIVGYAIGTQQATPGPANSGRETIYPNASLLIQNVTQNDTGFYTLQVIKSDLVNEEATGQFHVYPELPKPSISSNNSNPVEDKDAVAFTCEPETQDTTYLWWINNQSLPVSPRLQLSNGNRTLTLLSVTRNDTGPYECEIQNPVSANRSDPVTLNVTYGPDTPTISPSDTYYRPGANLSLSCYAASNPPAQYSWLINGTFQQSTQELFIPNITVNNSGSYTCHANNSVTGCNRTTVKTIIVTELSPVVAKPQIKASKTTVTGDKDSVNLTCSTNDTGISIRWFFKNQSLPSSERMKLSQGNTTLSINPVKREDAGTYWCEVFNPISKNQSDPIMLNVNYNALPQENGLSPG

[3] = biological target: T1, hCEACAM1 (R&D Systems, CAT. NO. 2244-CM); assay: BLI (Octet QKe); sentence that introduces Table 5, differs from the table cell
[4] = biological target: T1, hCEACAM1 (R&D Systems, CAT. NO. 2244-CM); assay: BLI (Octet QKe); Anti-His (His1K) biosensors, hCEACAM1 (R&D 2244-CM), antibody at 6.25-400 nM

Binder	항원-항체 결합의 전체 표면적 [1]	Kd [2]	Kd [3]	Kd [4]	koff [4]	kon [4]
항-CEACAM1 항체의 Fab (Fab of the anti-CEACAM1 antibody, papain fragment of the IgG1-type antibody) (Fab, V domains shown) VH: EVQLLESGGGLVQPGGSLRLSCAASGFTFSNYAMSWVRQAPGKGLEWVSVISHGGGSIYYADSVKGRLTISRDNSKNTLYLQMNSLRAEDTAVYYCARDPTKGYAPTFDYWGQGTLVTVSS VL: QSVLTQPPSASGTPGQRVTISCSGSSSNIGNNYVSWYQQLPGTAPKLLIYADSRRPSGVPDRFSGSKSGTSASLAISGLRSEDEADYYCGAWDLSLNGYVFGGGTKLTVLG	792 Å2	–	–	–	–	–
항-CEACAM1 항체 (anti-CEACAM1 antibody, IgG4 type) (antibody, V domains shown, also called 일 실시예의 항-CEACAM1 항체) VH: EVQLLESGGGLVQPGGSLRLSCAASGFTFSNYAMSWVRQAPGKGLEWVSVISHGGGSIYYADSVKGRLTISRDNSKNTLYLQMNSLRAEDTAVYYCARDPTKGYAPTFDYWGQGTLVTVSS VL: QSVLTQPPSASGTPGQRVTISCSGSSSNIGNNYVSWYQQLPGTAPKLLIYADSRRPSGVPDRFSGSKSGTSASLAISGLRSEDEADYYCGAWDLSLNGYVFGGGTKLTVLG	–	3.36 nM	3.9 nM	3.39 nM	0.000567 s⁻¹	163000 M⁻¹ s⁻¹

Source: patent KR20210154940A (dated 2021)
